Measured values reported in patent US20180298070A1, “PEPTIDE COMPOUND” (Takeda Pharmaceutical Company Limited, published 2018).
Non-standard residues stand in square brackets, D forms with d. No end group written: not given here. Aib = CC(C)(N)C(=O)O

The binders below were run against human GLP-1R (human, UniProt P43220) (assay: cell-based or functional assay).

| Binder | Agonist activity (EC50, M) [M] |
| --- | --- |
| Y[Aib]EGTVVSLYSI[Aib]LDKQAQ[Aib]EFVKWLLKGGPSSGAPPPSK-NH2 (N-terminus assumed; SMILES CC[C@H](C)[C@H](NC(=O)[C@H](CO)NC(=O)[C@H](Cc1ccc(O)cc1)NC(=O)[C@H](CC(C)C)NC(=O)[C@H](CO)NC(=O)[C@@H](NC(=O)[C@@H](NC(=O)[C@@H](NC(=O)CNC(=O)[C@H](CCC(=O)O)NC(=O)C(C)(C)NC(=O)[C@@H](N)Cc1ccc(O)cc1)[C@@H](C)O)C(C)C)C(C)C)C(=O)NC(C)(C)C(=O)N[C@@H](CC(C)C)C(=O)N[C@@H](CC(=O)O)C(=O)N[C@@H](CCCCN)C(=O)N[C@@H](CCC(N)=O)C(=O)N[C@@H](C)C(=O)N[C@@H](CCC(N)=O)C(=O)NC(C)(C)C(=O)N[C@@H](CCC(=O)O)C(=O)N[C@@H](Cc1ccccc1)C(=O)N[C@H](C(=O)N[C@@H](CCCCN)C(=O)N[C@@H](Cc1c[nH]c2ccccc12)C(=O)N[C@@H](CC(C)C)C(=O)N[C@@H](CC(C)C)C(=O)N[C@@H](CCCCN)C(=O)NCC(=O)NCC(=O)N1CCC[C@H]1C(=O)N[C@@H](CO)C(=O)N[C@@H](CO)C(=O)NCC(=O)N[C@@H](C)C(=O)N1CCC[C@H]1C(=O)N1CCC[C@H]1C(=O)N1CCC[C@H]1C(=O)N[C@@H](CO)C(=O)N[C@@H](CCCCN)C(N)=O)C(C)C) [Compound 6] | > 1e-06 |
| Y[Aib]EGTVVSFYSI[Aib]LDKQAQ[Aib]EFVKWLLKGGPSSGAPPPSK-NH2 (N-terminus assumed; SMILES CC[C@H](C)[C@H](NC(=O)[C@H](CO)NC(=O)[C@H](Cc1ccc(O)cc1)NC(=O)[C@H](Cc1ccccc1)NC(=O)[C@H](CO)NC(=O)[C@@H](NC(=O)[C@@H](NC(=O)[C@@H](NC(=O)CNC(=O)[C@H](CCC(=O)O)NC(=O)C(C)(C)NC(=O)[C@@H](N)Cc1ccc(O)cc1)[C@@H](C)O)C(C)C)C(C)C)C(=O)NC(C)(C)C(=O)N[C@@H](CC(C)C)C(=O)N[C@@H](CC(=O)O)C(=O)N[C@@H](CCCCN)C(=O)N[C@@H](CCC(N)=O)C(=O)N[C@@H](C)C(=O)N[C@@H](CCC(N)=O)C(=O)NC(C)(C)C(=O)N[C@@H](CCC(=O)O)C(=O)N[C@@H](Cc1ccccc1)C(=O)N[C@H](C(=O)N[C@@H](CCCCN)C(=O)N[C@@H](Cc1c[nH]c2ccccc12)C(=O)N[C@@H](CC(C)C)C(=O)N[C@@H](CC(C)C)C(=O)N[C@@H](CCCCN)C(=O)NCC(=O)NCC(=O)N1CCC[C@H]1C(=O)N[C@@H](CO)C(=O)N[C@@H](CO)C(=O)NCC(=O)N[C@@H](C)C(=O)N1CCC[C@H]1C(=O)N1CCC[C@H]1C(=O)N1CCC[C@H]1C(=O)N[C@@H](CO)C(=O)N[C@@H](CCCCN)C(N)=O)C(C)C) [Compound 7] | > 1e-06 |
| Y[Aib]EGTVKSDYSI[Aib]LDKQAQ[Aib]EFVKWLLKGGPSSGAPPPSK-NH2 (N-terminus assumed; SMILES CC[C@H](C)[C@H](NC(=O)[C@H](CO)NC(=O)[C@H](Cc1ccc(O)cc1)NC(=O)[C@H](CC(=O)O)NC(=O)[C@H](CO)NC(=O)[C@H](CCCCN)NC(=O)[C@@H](NC(=O)[C@@H](NC(=O)CNC(=O)[C@H](CCC(=O)O)NC(=O)C(C)(C)NC(=O)[C@@H](N)Cc1ccc(O)cc1)[C@@H](C)O)C(C)C)C(=O)NC(C)(C)C(=O)N[C@@H](CC(C)C)C(=O)N[C@@H](CC(=O)O)C(=O)N[C@@H](CCCCN)C(=O)N[C@@H](CCC(N)=O)C(=O)N[C@@H](C)C(=O)N[C@@H](CCC(N)=O)C(=O)NC(C)(C)C(=O)N[C@@H](CCC(=O)O)C(=O)N[C@@H](Cc1ccccc1)C(=O)N[C@H](C(=O)N[C@@H](CCCCN)C(=O)N[C@@H](Cc1c[nH]c2ccccc12)C(=O)N[C@@H](CC(C)C)C(=O)N[C@@H](CC(C)C)C(=O)N[C@@H](CCCCN)C(=O)NCC(=O)NCC(=O)N1CCC[C@H]1C(=O)N[C@@H](CO)C(=O)N[C@@H](CO)C(=O)NCC(=O)N[C@@H](C)C(=O)N1CCC[C@H]1C(=O)N1CCC[C@H]1C(=O)N1CCC[C@H]1C(=O)N[C@@H](CO)C(=O)N[C@@H](CCCCN)C(N)=O)C(C)C) [Compound 8] | > 1e-06 |

Target: human GLP-1R (human, UniProt P43220)
Experiment: cell-based or functional assay
Remark: another data set of the same source

| Binder | Agonist activity (EC50, M) [M] |
| --- | --- |
| YXEGTXISDYSIXLDRXHQXNFVNWXLAQRPSSGAPPPS (N-methyl on Tyr1 (Me-Tyr); Aib at 2, 13, 20; Iva at 6, 26; Lys(Oda-GGGGGG-) at 17; C-terminal NH2) [Compound 492] | > 1e-06 |
| YXEGTXISDYSIXXDRXHQXNFVNWXLAQRPSSGAPPPS (N-methyl on Tyr1 (Me-Tyr); Aib at 2, 13, 17, 20; Iva at 6, 26; Lys(Heda-GGGGGG-) at 14; C-terminal NH2) [Compound 509] | > 1e-06 |
| YXEGTXISDYSIXXDRXHQXNFVNWXLAQRPSSGAPPPS (N-methyl on Tyr1 (Me-Tyr); Aib at 2, 13, 17, 20; Iva at 6, 26; Lys(Heda-GGGGG-) at 14; C-terminal NH2) [Compound 507] | > 1e-06 |
| YXEGTXISDYSIXLDRXHQXNFVNWXLAQRPSSGAPPPS (N-methyl on Tyr1 (Me-Tyr); Aib at 2, 13, 20; Iva at 6, 26; Lys(Eda-GGGGG-) at 17; C-terminal NH2) [Compound 493] | > 1e-06 |
| YXEGTXISDYSIXXDRXHQXNFVNWXLAQRPSSGAPPPS (N-methyl on Tyr1 (Me-Tyr); Aib at 2, 13, 17, 20; Iva at 6, 26; Lys(Eda-GGGGGG-) at 14; C-terminal NH2) [Compound 521] | > 1e-06 |
| YXEGTXISDYSIXLDRXHQXNFVNWXLAQRPSSGAPPPS (N-methyl on Tyr1 (Me-Tyr); Aib at 2, 13, 20; Iva at 6, 26; Lys(Hepda-GGGGG-) at 17; C-terminal NH2) [Compound 502] | > 1e-06 |
| YXEGTXISDYSIXXDRXHQXNFVNWXLAQRPSSGAPPPS (N-methyl on Tyr1 (Me-Tyr); Aib at 2, 13, 17, 20; Iva at 6, 26; Lys(Hepda-GGGGGG-) at 14; C-terminal NH2) [Compound 510] | > 1e-06 |
| YXEGTXISDYSIXXDRXHQXNFVNWXLAQRPSSGAPPPS (N-methyl on Tyr1 (Me-Tyr); Aib at 2, 13, 17, 20; Iva at 6, 26; Lys(Hepda-GGGGG-) at 14; C-terminal NH2) [Compound 508] | > 1e-06 |
| YXEGTXISDYSIXLDRXAQXNFVNWXLAQRPSSGAPPPS (N-methyl on Tyr1 (Me-Tyr); Aib at 2, 13, 20; Iva at 6, 26; Lys(Heda-GGGGGG-) at 17; C-terminal NH2) [Compound 494] | > 1e-06 |
| YXEGTXISDYSIXLDRXAQXNFVNWXLAQRPSSGAPPPS (N-methyl on Tyr1 (Me-Tyr); Aib at 2, 13, 20; Iva at 6, 26; Lys(Hepda-GGGGGG-) at 17; C-terminal NH2) [Compound 495] | > 1e-06 |
| YXEGTXISDYSIXLDRXAQXNFVNWXLAQRPSSGAPPPS (N-methyl on Tyr1 (Me-Tyr); Aib at 2, 13, 20; Iva at 6, 26; Lys(Oda-GGGGGG-) at 17; C-terminal NH2) [Compound 496] | > 1e-06 |
| YXEGTXISDYSIXLDRXHQXNFVNWXLAQRPSSGAPPPS (N-methyl on Tyr1 (Me-Tyr); Aib at 2, 13, 20; Iva at 6, 26; Lys(Hepda-GGGGGG-) at 17; C-terminal NH2) [Compound 504] | > 1e-06 |
| YXEGTXISDYSIXLDRXHQXNFVNWXLAQRPSSGAPPPS (N-methyl on Tyr1 (Me-Tyr); Aib at 2, 13, 20; Iva at 6, 26; Lys(Heda-GGGGGG-) at 17; C-terminal NH2) [Compound 503] | > 1e-06 |
| YXEGTXISDYSIXXDRXAQXNFVNWXLAQRPSSGAPPPSR (N-methyl on Tyr1 (Me-Tyr); Aib at 2, 13, 17, 20; Iva at 6, 26; Lys(Hepda-GGGGGG-) at 14; C-terminal NH2) [Compound 506] | > 1e-06 |
| YXEGTFISDYSIAXDRXHQXNFVNWXLAQRPSSGAPPPSR (not fully specified; N-methyl on Tyr1 (Me-Tyr); Aib at 2, 13, 17, 20; Iva at 6, 26; Lys(Eda-GGGGGG-) at 14; C-terminal NH2) [Compound 522] | > 1e-06 |
| YXEGTXISDYSIXXDRXAQXNFVNWXLAQRPSSGAPPPSR (N-methyl on Tyr1 (Me-Tyr); Aib at 2, 13, 17, 20; Iva at 6, 26; Lys(Eda-GGGGGG-) at 14; C-terminal NH2) [Compound 520] | > 1e-06 |
